From publication PMC9749489

Tests used:
[1] = system: Putidaredoxin W106A mutant; test: continuous-wave EPR; conditions: other: continuous-wave EPR (high-spin to low-spin conversion of the heme)
[2] = system: Putidaredoxin D38A mutant; test: continuous-wave EPR; conditions: other: continuous-wave EPR (high-spin to low-spin conversion of the heme)

MTSL-P450cam (P450cam labelled with MTSL at S48C and S190C)
conversion from the high-spin to low-spin state [1]: approximately 50% conversion | conversion from the high-spin to low-spin state [2]: approximately 50% conversion
